Assay: soluble on expression in E. coli; label from the status in PepcDB or PDB records

Row | Sequence | soluble on expression in E. coli
1 | MGSDKIHHHHHHMNIERADFVDRVKIFVKAGDGGNGCVSFRREKYVPKGGPDGGDGGNGGFVFLRANPSVSTLIEFVNKRKFMAENGKHGMGKKMKGRNGKDLFIDVPVGTVVKDAVTGEVIADLNEPGKIVCVARGGRGGRGNAHFATSIKQAPLIAERGEKGESRWLELELKILADVGLVGYPNVGKSSLISRISNARPKIANYPFTTLIPNLGVVKYDDFSFVVADIPGLIEGASEGVGLGNVFLRHVERCYLIAHVIDVSGYEREDPVRDYFVIREEMKKYSPFLLEKPEIVVANKIDLIGKEELEKILKRLRDATNREVIPVSAVTGEGIDLLVSKLASIVREMKVEKPERKEEKFVKPSPVWRRLPEKFHLEVVKEDEGYWVVEGENLRVWIERFDLNQRDARLMLLQVLEKNGLNNKLKEAGVKEGDVVRIGDFEFEYRE | not soluble
2 | MGSDKIHHHHHHMKVYLVGGAVRDQLLGLPVKDRDWIVVGADPATLLSLGYQQVGKDFPVFLNPKTKEEYALARTERKSSAGYTGFICDFSPTITLEQDLIRRDLTINAMAQSEDGEIIDPYGGKQDLENRILRHISPAFSEDPLRVLRVARFAARYHSLGFKIASETLALMAELAQSGELQHLTAERIWLETEKALNEKNPEIYFETLHKTGALSVLFSEIDALYGVPNPVKHHPEVDSFIHTMLVLKQAVNLTENNPILNKSAVRFAAICHDLGKALTPQNILPHHYGHEQAGIKPTRSLCKRLKVPSYFQELAELTCEFHTHIHKAFELRAETVITLFNRFDVWRKPQRFQEFLQVCLADTRGRTGFETKDYPQIDYINQLLHAANEVDVQQVIADGFEKQAIKNELTKRRILAVKQTKTNYPTN | not soluble
3 | MGSSHHHHHHSSGLVPRSGHMEPRGTKRKAEKTEVEKPLNKLPRAVPSLRTQPSLYSGPFPFYRRPSELGCFSLDAQRQYHGDARALRYYSPPPINGPGPDFDLRDGYPDRYQPRDEEVQERLDHLLRWVLEHRNQLEGGPGWLAGATVTWRGHLTKLLTTPYERQEGWQLAASRFQGTLYLSEVETPAARAQRLARPPLLRELMYMGYKFEQYMCADKPGGSPDPSGEVNTNVAYCSVLRSRLGNHPLLFSGEVDCLNPQAPCTQPPSCYVELKTSKEMHSPGQWRSFYRHKLLKWWAQSFLPGVPHVVAGFRNPEGFVCSLKTFPTMEMFENVRNDREGWNPSVCMNFCAAFLSFAQSTVVQDDPRLVHLFSWEPGGPVTVSVHRDAPYAFLPSWYVETMTQDLPPLSKTPSPKD | soluble
4 | MGSDKIHHHHHHMTTTDTRPSPSPLQQDYQRFLLLGSRRAPYTLHVHETGYRSGTINTDALGLRYSHCAGKRFSAAEHGGASRINLLVGGSTALGIGASSDEHTVASHLSMLTGEVWLSLAGCGLNATQELMMFLTHQHRLGQLGHVVVLSGLNSLAHEALCEVLAGTNDPQHAKAYQAFLNSFSEGMQPCAPPRRQSLWRRIGQALTPPVAAPPVSWPLSPPEKRLARAADNIGRTLRQWDRLLADSHATLTFILQPLLPWCRDTLPAGEQAMLTALQQQPANFDRLLEGAFDRQLHSAFFRRIKSQADPVPCYDMNCMLDSSPVFGADLFIDRLHLNDLGNNALAKVITAKLGLAQEKHAQRKVTPIKLV | not soluble
5 | MTTKKADYIWFNGEMVRWEDAKVHVMSHALHYGTSVFEGIRCYDSHKGPVVFRHREHMQRLHDSAKIYRFPVSQSIDELMEACRDVIRKNNLTSAYIRPLIFVGDVGMGVNPPAGYSTDVIIAAFPWGAYLGAEALEQGIDAMVSSWNRAAPNTIPTAAKAGGNYLSSLLVGSEARRHGYQEGIALDVNGYISEGAGENLFEVKDGVLFTPPFTSSALPGITRDAIIKLAKELGIEVREQVLSRESLYLADEVFMSGTAAEITPVRSVDGIQVGEGRCGPVTKRIQQAFFGLFTGETEDKWGWLDQVNQ | soluble
6 | TWCPGCGNFAILKAFERASRRVIEEGFDIAVSSGIGCHGKISDYLSLPGFHVIHGRVPPFLTGLKLANPNLVVVGFSGDGDGLNEGVEHLVHAARRNTDITIILHNNGVFGLTTGQVTATSPRGRKSRSTPRGNPEYPLNPCHLMLVSGATFVARVFAGEQERLSEVFYNAMKHKGFSFVEVMQPCVSFNNFWEMRK | not soluble
7 | MGSDKIHHHHHHMTELLARNADCIVWLARYMERAENLARILGVAETFARDRAGRNWLAVVQINADEERFFARHRVADARTVPHFYILDPDNPNSILSSIKAARENARTLRPMISIEMWRQINRMNTWMGGLSDNAVAPANLAALCEEIKEACQLHVGITEGTFYRDQAHYFYHLGKSIERADQTTRLLDIKYHTLLPRPEDVGSALDISHWNALLKAVAGYQASRRVLAGKITPRSVAAFLLFSDSFPRSVILCVRQMDWLMTQLRTRYHLRGGVKALELLDGLRAALTDHDIDHVIDHGLHEFIDWVQSQLMAIFAEIQDSFCVTRQPSQSQSQ | not soluble
8 | MKCSNEKVVNQEQSYESMDKFLDGVQEVAYIHSNQNVIGSSKAENHMSRWAAHDVFELKQFSQLPANIAVCSSKTYKEKVDADTLPHTKKGQQPSEGSISLPLYISNPVNQKKKKVYHTNQTTFIIGETPKGIRRKQFEEMASYFNSSSVNEFAKHITNATSEERQKMLRDFYASQYPEVKEFFVDSVSQFNNSSFEKGEQRTRKKSDKRESLIKPRLSDSETLSFKDSTNKISQVCSLKTYKRKSVKFQNHISYREEVFFNDAETKKSPVSSTQEIDSGKNSQASEDTVTSRSLNSESETRERRLENTMKDQQDLTRTGISRKEPLLKLENKKIENPVLENTSVISLLGDTSILDDLFKSHGNSPTQLPKKVLSGPMEKAKQRPKDFWDILNEQNDESLSKLTDLAVIETLCEKAPLAAPFKRREEPATSLWKSNEKFLWKKFSPSDTDENATNTQSTT | not soluble
9 | MSVASETNWKKLDEKIAISGQISVDDVAAIAAAGYKSIICNRPDGEGGEHQPGSTELEEAAKAAGLQFAYLPVEIGQVSDEKCSAFHQLMATLPGPVLAFCNSGNRARALYSRDVGTTTTPAETISAACDWEHEAAAVTEAESEAAGAAAVSAASSRDEAAGKSIPVTPACNWDNAFDIVVVGGGSAGLGVTASLLRRRSSLRIAIIEPNDKHYYQPAWTLVGGGAYAVDQTVRNTADVIPHGAEWIKAEVSGFSPNDNLVHLADGRTIGYQQLIVCPGIRLAWEKIEGIQETLGKNGVTSNYLFDLAPYTWSLTQQLKGGKALFTQPPMPIKCAGAPQKAMYLSCDYWQRQGVLDKIEVEFDSAGAVLFGVADFVPPLMEYVRKYHANLVFNSNLVKVNGPEKIATFEIKNEAGEVTRVDKPFDMLHVTPPQAAPDFLRDSPLADASGYCEVNPKTLQHTRFANIFSLGDACSSPNTKTAAAVRKQIVIVAENLLAAKDGREFHAVYDGYGACPLTVENGKVVLAEFGFGGKLLPTFPLNPAVARKLYWWFKVKLFPWLYWEGMLKGREWLTRSTETKLEHHHHHH | soluble
10 | MTQFTTELLNFLAQKQDIDEFFRSSLETAMNDLLQVELSAFLGYEPYDKAGYNTGNSRNGAYTRRFETKYGVVNLLIPRDRNGEFSPALIPSYGRRDNHLEEMVIKLYRTGVTTREISDIIERMYGHHYSPATVSNISKATQENVASFHERSLEANYTVLYLDGTYLPLRRGTVSKECIHIALGVTSYGHKAILGYDIAPNENNASWSDLLERFKGQGVQQVSLVVSDGFNGLDQLIQQAFPMAKQQRCLVHIGRNIASKVKRADRALILEQFKTIYRAINVEEAKQALDSFINEWKPHYKKVIETLESIENLLIFYEFPHQIWGSIYSTNLIESLNKEIKRQTKKKVVFPNEESLERYLVTLFSDYNFKQGQRIHKGFGQCTDTLESLFD | not soluble
11 | MDTVVMSWWDFGHLFAVAADRPVTFDGGSQNTPRAYWIGKALTTSNETLSRGILTMLSTSGDLAYETLDNYTDDSGKTAEILTATLGLPREEARAVMTGRYGLSDKEADSVLRYSHPAKPKPFVLVLSSDMLGKAPWWTYFGTWDFKKKTGSRLEHHHHHH | not soluble
12 | MSLNGTSGSVARQLAARRIIGTSWRLFVAYLKWSGVLEVSFKGVEKLNRPGQLILANHPSLLDVVLLVGHVPEMNCIVKKDLQHNPAMSSQIKGAGYIPNEESEAMLETVKAVFDSGQSLLVFPEGTRTGWDGRVKMHRGAVSLGLRYAEVITPVCIKMNPPNFKKGQPWYRIPPKRIRYEITVGDDILPQDWLAEKPLPIAARRLNEYLQDYFTRKTIEGHHHHHH | not soluble
13 | MTLPKIGKPATRALNSQGIYTLEAVSQYTKSSLMEMHGVGPKAISILEQALFQHQLHFKTEVQSSLPFKLTGDVSCNHAPKRQQMIDFIVATAALDIELLRSLVTTEFIWSVPGHFDIYGPQILIQELSNYYNQVASLNIHSNITHGCLGSMHGIEILKTGKEIHFAHFFEFENHKKDAKLSKVTSYIVVA | not soluble
14 | MGSDKIHHHHHHMSERLDENFSRAIDLMLACTGKIIISGMGKSGIIGQKIAATLSSTGTTAIFLHPAEAAHGDLGVVSEGDTVICLSKSGMTEELNFILPALRERKATIIAFTGNPRSYLAMNADVVLDTGVEQEACPYDLAPTSSTTAMLAMGDALAICLMKKKNFTDQEFALTHPKGSLGKQLTMRVGDVMATGDALPVVSEDAMLSDLILEMTSKRYGVSGVVDAEGKLTGIFTDGDLRRLVQTGESFLDKKAVEVMTPNPKTVAPDMKAKACLELLETHRITQLMVCDEKRCPVGIVHIHDLVTLGL | not soluble
15 | MGSSHHHHHHSSGLVPRGSHMMEVGFLGLGIMGKAMSMNLLKNGFKVTVWNRTLSKCDELVEHGASVCESPAEVIKKCKYTIAMLSDPCAALSVVFDKGGVLEQICEGKGYIDMSTVDAETSLKINEAITGKGGRFVEGPVSGSKKPAEDGQLIILAAGDKALFEESIPAFDVLGKRSFYLGQVGNGAKMKLIVNMIMGSMMNAFSEGLVLADKSGLSSDTLLDILDLGAMTNPMFKGKGPSMNKSSYPPAFPLKHQQKDMRLALALGDENAVSMPVAAAANEAFKKARSLGLGDLDFSAVIEAVKFSRE | soluble
16 | MIHEVAGDGTKRSFHEKKKMDESYQRNGRTNLEHVPRLKLGKLFIFISASTNKTCLQIDNEITNN | not soluble
17 | MSLRTTHIPLVAIVLASVCSSLAAPKAGGLELIILHNNDMHARFEQTGAYSNDCQPSDVASNRCYGGFARVAHKVREYRATEASGGLPVLYLNAGDTYTGTPWFSVFKDNITAAFLNILKPDAISLGNHEFDLGVEGLVPFLNEVDFPVLVTNLDLSKTPEMQTSRSLQRSIIFTKAGVRIGVIGYLTPETKQLAPINTVEFLDEIEEINKEATSLKNQGVNILIALGHSGLERDKEIAAQCPDVDLVIGGHSHTFLYSGTAPDVEDPAGPYPVMVKNAAGKEVPVVQAYAYTKYLGYLHLQFDTEGNLIELDGTPLLLNGTVERDSDVLQLLELYRPGILALDAQIGHSNVFLDSSRCRFEECNIGNMIADSLVITYATTREQSNDGFWTDAAIGFIQGGGIRASVNAGPITMKDLKTVLPFGNAMVVTDITGAQLRQMLEQSVHRYDGVSGYGEFLQMAGVNVEYDLSRPPMQRVVHVKVRCARCQVPAYEELQDDGVYRVILSQFLYDGGDGYEMLPGSPRQLLTFGEYEITEEYLKRYSPIYPAIEWRIRMQGQPNVTEGHHHHHH | soluble
18 | MSRESTVREWRTRVPRYRLLGGRCSDCGRSFYPPAKACPYCGSRNVAETELPRVGRLEAYTVLYSVESGARDRSPVVIGLVDLGVAKVVSEIVDVSDPESLERGVQVEAVFRRIYEDGDEGVIVYGVKFRPKA | not soluble
